In US20230110958A1 (Regeneron, published 2023):

T1: murine IL27 receptor (IL27Ra and gp130) on mouse cells (MC9/STAT3-Luc reporter cells; splenic CD4+ T cells) (mouse, UniProt O70394 25-623; Q00560 23-917)
T1 sequence (looked up) 1: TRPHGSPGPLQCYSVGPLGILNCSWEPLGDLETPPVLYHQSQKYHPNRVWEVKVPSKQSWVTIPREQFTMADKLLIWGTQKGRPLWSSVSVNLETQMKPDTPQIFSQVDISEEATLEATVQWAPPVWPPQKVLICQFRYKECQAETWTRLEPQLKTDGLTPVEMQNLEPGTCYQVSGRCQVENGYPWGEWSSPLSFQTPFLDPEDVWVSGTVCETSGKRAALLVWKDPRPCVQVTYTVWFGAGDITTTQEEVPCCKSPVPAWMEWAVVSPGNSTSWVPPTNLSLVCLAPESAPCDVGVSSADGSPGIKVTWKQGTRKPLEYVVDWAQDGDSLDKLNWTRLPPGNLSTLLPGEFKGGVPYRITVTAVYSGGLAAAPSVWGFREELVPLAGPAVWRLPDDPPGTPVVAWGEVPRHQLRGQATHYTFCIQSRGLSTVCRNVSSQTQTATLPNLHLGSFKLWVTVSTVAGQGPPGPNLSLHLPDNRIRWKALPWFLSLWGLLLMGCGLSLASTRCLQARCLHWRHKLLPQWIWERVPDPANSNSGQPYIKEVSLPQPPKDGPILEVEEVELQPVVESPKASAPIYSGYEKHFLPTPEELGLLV
T1 sequence (looked up) 2: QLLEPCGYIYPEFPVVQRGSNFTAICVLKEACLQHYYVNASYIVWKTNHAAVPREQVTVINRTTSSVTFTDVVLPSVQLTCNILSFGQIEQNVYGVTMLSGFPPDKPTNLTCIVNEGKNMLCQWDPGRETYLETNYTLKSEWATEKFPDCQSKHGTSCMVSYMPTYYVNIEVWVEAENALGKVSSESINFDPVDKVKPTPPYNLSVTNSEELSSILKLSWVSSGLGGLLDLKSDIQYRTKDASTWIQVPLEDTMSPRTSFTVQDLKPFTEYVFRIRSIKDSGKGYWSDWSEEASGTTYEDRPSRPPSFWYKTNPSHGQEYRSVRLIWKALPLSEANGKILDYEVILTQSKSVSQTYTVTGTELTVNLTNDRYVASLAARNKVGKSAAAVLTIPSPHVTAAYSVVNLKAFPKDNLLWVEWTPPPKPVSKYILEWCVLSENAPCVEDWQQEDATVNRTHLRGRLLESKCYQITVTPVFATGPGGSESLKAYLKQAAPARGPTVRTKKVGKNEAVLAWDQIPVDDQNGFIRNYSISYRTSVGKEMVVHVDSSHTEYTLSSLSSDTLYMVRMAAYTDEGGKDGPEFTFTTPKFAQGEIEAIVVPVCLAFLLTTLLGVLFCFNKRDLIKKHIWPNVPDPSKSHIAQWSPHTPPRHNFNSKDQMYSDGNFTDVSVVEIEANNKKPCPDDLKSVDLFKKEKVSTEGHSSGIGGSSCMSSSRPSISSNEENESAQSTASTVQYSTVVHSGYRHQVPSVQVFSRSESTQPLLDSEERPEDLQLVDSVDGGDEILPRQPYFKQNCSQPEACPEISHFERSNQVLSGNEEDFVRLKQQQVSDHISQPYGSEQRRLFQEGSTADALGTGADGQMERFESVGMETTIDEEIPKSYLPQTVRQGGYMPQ


Molecular target: T1, murine IL27 receptor (IL27Ra and gp130) …
Assay: cell-based or functional assay

Row | Binder | EC50 (M), STAT3 luciferase, MC9 cells | FOLD INDUCTION, STAT3 luciferase, MC9 cells
1 | IL27M5, Bivalent Fc-p28-EBI3 (Fc fusion) ESKYGPPCPPCPAPPVAGPSVFLFPPKPKDTLMISRTPEVTCVVVDVSQEDPEVQFNWYVDGVEVHNAKTKPREEQFNSTYRVVSVLTVLHQDWLNGKEYKCKVSNKGLPSSIEKTISKAKGQPREPQVYTLPPSQEEMTKNQVSLTCLVKGFYPSDIAVEWESNGQPENNYKTTPPVLDSDGSFFLYSRLTVDKSRWQEGNVFSCSVMHEALHNHYTQKSLSLSLGKGGGGSGGGGSGGGGSFPTDPLSLQELRREFTVSLYLARKLLSEVQGYVHSFAESRLPGVNLDLLPLGYHLPNVSLTFQAWHHLSDSERLCFLATTLRPFPAMLGGLGTQGTWTSSEREQLWAMRLDLRDLHRHLRFQVLAAGFKCSKEEEDKEEEEEEEEEEKKLPLGALGGPNQVSSQVSWPQLLYTYQLLHSLELVLSRAVRDLLLLSLPRRPGSAWDSGGGGSGGGGSGGGGSGGGGSGGGGSYTETALVALSQPRVQCHASRYPVAVDCSWTPLQAPNSTRSTSFIATYRLGVATQQQSQPCLQRSPQASRCTIPDVHLFSTVPYMLNVTAVHPGGASSSLLAFVAERIIKPDPPEGVRLRTAGQRLQVLWHPPASWPFPDIFSLKYRLRYRRRGASHFRQVGPIEATTFTLRNSKPHAKYCIQVSAQDLTDYGKPSDWSLPGQVESAPHKP | 4.19e-10 M | 2.91 fold
2 | IL27M4, Bivalent Fc-EBI3-p28 (Fc fusion) ESKYGPPCPPCPAPPVAGPSVFLFPPKPKDTLMISRTPEVTCVVVDVSQEDPEVQFNWYVDGVEVHNAKTKPREEQFNSTYRVVSVLTVLHQDWLNGKEYKCKVSNKGLPSSIEKTISKAKGQPREPQVYTLPPSQEEMTKNQVSLTCLVKGFYPSDIAVEWESNGQPENNYKTTPPVLDSDGSFFLYSRLTVDKSRWQEGNVFSCSVMHEALHNHYTQKSLSLSLGKGGGGSGGGGSGGGGSYTETALVALSQPRVQCHASRYPVAVDCSWTPLQAPNSTRSTSFIATYRLGVATQQQSQPCLQRSPQASRCTIPDVHLFSTVPYMLNVTAVHPGGASSSLLAFVAERIIKPDPPEGVRLRTAGQRLQVLWHPPASWPFPDIFSLKYRLRYRRRGASHFRQVGPIEATTFTLRNSKPHAKYCIQVSAQDLTDYGKPSDWSLPGQVESAPHKPGGGGSGGGGSGGGGSGGGGSFPTDPLSLQELRREFTVSLYLARKLLSEVQGYVHSFAESRLPGVNLDLLPLGYHLPNVSLTFQAWHHLSDSERLCFLATTLRPFPAMLGGLGTQGTWTSSEREQLWAMRLDLRDLHRHLRFQVLAAGFKCSKEEEDKEEEEEEEEEEKKLPLGALGGPNQVSSQVSWPQLLYTYQLLHSLELVLSRAVRDLLLLSLPRRPGSAWDS | 4.71e-10 M | 2.78 fold
3 | IL27M12, monovalent EBI3-p28 x Fc (Fc fusion) chain 1: YTETALVALSQPRVQCHASRYPVAVDCSWTPLQAPNSTRSTSFIATYRLGVATQQQSQPCLQRSPQASRCTIPDVHLFSTVPYMLNVTAVHPGGASSSLLAFVAERIIKPDPPEGVRLRTAGQRLQVLWHPPASWPFPDIFSLKYRLRYRRRGASHFRQVGPIEATTFTLRNSKPHAKYCIQVSAQDLTDYGKPSDWSLPGQVESAPHKPGGGGSGGGGSGGGGSGGGGSFPTDPLSLQELRREFTVSLYLARKLLSEVQGYVHSFAESRLPGVNLDLLPLGYHLPNVSLTFQAWHHLSDSERLCFLATTLRPFPAMLGGLGTQGTWTSSEREQLWAMRLDLRDLHRHLRFQVLAAGFKCSKEEEDKEEEEEEEEEEKKLPLGALGGPNQVSSQVSWPQLLYTYQLLHSLELVLSRAVRDLLLLSLPRRPGSAWDSGGGGSGGGGSGGGGSESKYGPPCPPCPAPPVAGPSVFLFPPKPKDTLMISRTPEVTCVVVDVSQEDPEVQFNWYVDGVEVHNAKTKPREEQFNSTYRVVSVLTVLHQDWLNGKEYKCKVSNKGLPSSIEKTISKAKGQPREPQVYTLPPSQEEMTKNQVSLWCLVKGFYPSDIAVEWESNGQPENNYKTTPPVLDSDGSFFLYSRLTVDKSRWQEGNVFSCSVMHEALHNHYTQKSLSLSLGK chain 2: ESKYGPPCPPCPAPPVAGPSVFLFPPKPKDTLMISRTPEVTCVVVDVSQEDPEVQFNWYVDGVEVHNAKTKPREEQFNSTYRVVSVLTVLHQDWLNGKEYKCKVSNKGLPSSIEKTISKAKGQPREPQVYTLPPSQEEMTKNQVSLSCAVKGFYPSDIAVEWESNGQPENNYKTTPPVLDSDGSFFLVSRLTVDKSRWQEGNVFSCSVMHEALHNRFTQKSLSLSPGK | 1.22e-11 M | 2.68 fold
4 | IL27M6, monovalent Fc-p28 x EBI3 (Fc fusion) chain 1: ESKYGPPCPPCPAPPVAGPSVFLFPPKPKDTLMISRTPEVTCVVVDVSQEDPEVQFNWYVDGVEVHNAKTKPREEQFNSTYRVVSVLTVLHQDWLNGKEYKCKVSNKGLPSSIEKTISKAKGQPREPQVYTLPPSQEEMTKNQVSLWCLVKGFYPSDIAVEWESNGQPENNYKTTPPVLDSDGSFFLYSRLTVDKSRWQEGNVFSCSVMHEALHNHYTQKSLSLSLGKGGGGSGGGGSGGGGSFPTDPLSLQELRREFTVSLYLARKLLSEVQGYVHSFAESRLPGVNLDLLPLGYHLPNVSLTFQAWHHLSDSERLCFLATTLRPFPAMLGGLGTQGTWTSSEREQLWAMRLDLRDLHRHLRFQVLAAGFKCSKEEEDKEEEEEEEEEEKKLPLGALGGPNQVSSQVSWPQLLYTYQLLHSLELVLSRAVRDLLLLSLPRRPGSAWDS chain 2: ESKYGPPCPPCPAPPVAGPSVFLFPPKPKDTLMISRTPEVTCVVVDVSQEDPEVQFNWYVDGVEVHNAKTKPREEQFNSTYRVVSVLTVLHQDWLNGKEYKCKVSNKGLPSSIEKTISKAKGQPREPQVYTLPPSQEEMTKNQVSLSCAVKGFYPSDIAVEWESNGQPENNYKTTPPVLDSDGSFFLVSRLTVDKSRWQEGNVFSCSVMHEALHNRFTQKSLSLSPGKGGGGSGGGGSGGGGSYTETALVALSQPRVQCHASRYPVAVDCSWTPLQAPNSTRSTSFIATYRLGVATQQQSQPCLQRSPQASRCTIPDVHLFSTVPYMLNVTAVHPGGASSSLLAFVAERIIKPDPPEGVRLRTAGQRLQVLWHPPASWPFPDIFSLKYRLRYRRRGASHFRQVGPIEATTFTLRNSKPHAKYCIQVSAQDLTDYGKPSDWSLPGQVESAPHKP | 3.21e-11 M | 2.8 fold
5 | IL27M13, Bivalent p28-Fc (Fc fusion) FPTDPLSLQELRREFTVSLYLARKLLSEVQGYVHSFAESRLPGVNLDLLPLGYHLPNVSLTFQAWHHLSDSERLCFLATTLRPFPAMLGGLGTQGTWTSSEREQLWAMRLDLRDLHRHLRFQVLAAGFKCSKEEEDKEEEEEEEEEEKKLPLGALGGPNQVSSQVSWPQLLYTYQLLHSLELVLSRAVRDLLLLSLPRRPGSAWDSGGGGSGGGGSGGGGSESKYGPPCPPCPAPPVAGPSVFLFPPKPKDTLMISRTPEVTCVVVDVSQEDPEVQFNWYVDGVEVHNAKTKPREEQFNSTYRVVSVLTVLHQDWLNGKEYKCKVSNKGLPSSIEKTISKAKGQPREPQVYTLPPSQEEMTKNQVSLTCLVKGFYPSDIAVEWESNGQPENNYKTTPPVLDSDGSFFLYSRLTVDKSRWQEGNVFSCSVMHEALHNHYTQKSLSLSLGK |  | 1.11 fold
6 | IL27M3, Bivalent p28-EBI3-Fc (Fc fusion) FPTDPLSLQELRREFTVSLYLARKLLSEVQGYVHSFAESRLPGVNLDLLPLGYHLPNVSLTFQAWHHLSDSERLCFLATTLRPFPAMLGGLGTQGTWTSSEREQLWAMRLDLRDLHRHLRFQVLAAGFKCSKEEEDKEEEEEEEEEEKKLPLGALGGPNQVSSQVSWPQLLYTYQLLHSLELVLSRAVRDLLLLSLPRRPGSAWDSGGGGSGGGGSGGGGSGGGGSGGGGSYTETALVALSQPRVQCHASRYPVAVDCSWTPLQAPNSTRSTSFIATYRLGVATQQQSQPCLQRSPQASRCTIPDVHLFSTVPYMLNVTAVHPGGASSSLLAFVAERIIKPDPPEGVRLRTAGQRLQVLWHPPASWPFPDIFSLKYRLRYRRRGASHFRQVGPIEATTFTLRNSKPHAKYCIQVSAQDLTDYGKPSDWSLPGQVESAPHKPGGGGSGGGGSGGGGSESKYGPPCPPCPAPPVAGPSVFLFPPKPKDTLMISRTPEVTCVVVDVSQEDPEVQFNWYVDGVEVHNAKTKPREEQFNSTYRVVSVLTVLHQDWLNGKEYKCKVSNKGLPSSIEKTISKAKGQPREPQVYTLPPSQEEMTKNQVSLTCLVKGFYPSDIAVEWESNGQPENNYKTTPPVLDSDGSFFLYSRLTVDKSRWQEGNVFSCSVMHEALHNHYTQKSLSLSLGK | 8.63e-10 M | 3.02 fold
